Like-named read-outs stand apart in the source and are kept apart here.
B2: IL-33 (residues 112-270) (ligand, UniProt O95760 112-270, looked up)
chain: SITGISPITEYLASLSTYNDQSITFALEDESYEIYVEDLKKDEKKDKVLLSYYESQHPSNESGDGVDGKMLMVTLSPTKDFWLHANNKEHSVELHKCEKPLPDQAFFVLHNMHSNCVSFECKTDPGVFIGVKDNHLALIKVDSSENLCTENILFKLSET
notes: Interleukin-33, residues 112-270; Used unlabelled as the analyte in BLI; source: E. coli Rosetta2 (DE3), purified (Ni-NTA, TEV cleavage, second Ni-NTA, Superdex 75); not shown: His6, N-terminal, cleaved

How the values were obtained:
IL-1β (Homo sapiens) [1] = target: IL-1β (Homo sapiens) (UniProt P01584); details: cited from earlier work
IL-33 (Homo sapiens) = IL-33 (Homo sapiens) (UniProt O95760); experiment: ITC; details: cited from earlier work
IL-1Ra (Homo sapiens) = IL-1Ra (Homo sapiens) (UniProt P18510); details: cited from earlier work
IL-1β (Homo sapiens) [2] = target: IL-1β (Homo sapiens) (UniProt P01584); details: cited from earlier work; remark: listed apart in the source
IL-1α (Homo sapiens) = IL-1α (Homo sapiens) (UniProt P01583); details: cited from earlier work
IL-33 (residues 112-270) = target: B2; experiment: BLI; OctetRED96; biotinylated ST2 loaded on streptavidin sensors (20 ug/mL, 10 min), serial dilutions of IL-33 in solution; 25 C; 10 mM HEPES pH 7.5, 150 mM NaCl, 0.005% Tween 20, 100 uM EDTA; 1:1 binding model, KD calculated from kon and koff; details: both partners purified
[3] = target: ST2 D1-D2 domain (sequence 19-206) (UniProt Q01638 19-206, biotinylated with Biotin-PEO4 linker (equimolar ratio)); experiment: as above; details: both partners purified

IL-1β (Homo sapiens), sequence (P01584 117-269): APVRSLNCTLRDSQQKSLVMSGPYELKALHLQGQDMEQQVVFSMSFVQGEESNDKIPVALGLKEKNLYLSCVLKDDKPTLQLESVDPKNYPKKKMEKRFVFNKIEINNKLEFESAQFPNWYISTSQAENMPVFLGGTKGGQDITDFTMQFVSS
IL-1α (Homo sapiens), sequence (P01583 113-271): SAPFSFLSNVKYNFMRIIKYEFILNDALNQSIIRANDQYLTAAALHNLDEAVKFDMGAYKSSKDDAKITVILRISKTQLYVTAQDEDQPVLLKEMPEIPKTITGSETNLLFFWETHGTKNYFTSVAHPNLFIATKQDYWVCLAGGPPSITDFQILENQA
IL-1Ra (Homo sapiens), sequence (P18510 26-177): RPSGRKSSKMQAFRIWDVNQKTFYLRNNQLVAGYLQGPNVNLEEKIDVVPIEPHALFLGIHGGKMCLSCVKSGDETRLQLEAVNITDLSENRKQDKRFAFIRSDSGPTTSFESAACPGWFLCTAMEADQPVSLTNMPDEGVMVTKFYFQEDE

For IL-1R1 D1-D3 (from UniProt P14778), the Kd (IL-1β (Homo sapiens) [1]) is given as 2 nM.

In the case of ST2 ECD (from UniProt Q01638), the Kd (IL-33 (Homo sapiens)) is listed as 5 nM.

In the case of IL-1R1 D1-D2 (from UniProt P14778), the Kd (IL-1Ra (Homo sapiens)) is given as 28 nM, the Kd (IL-1β (Homo sapiens) [2]) is given as greater than 10000 nM and the Kd (IL-1α (Homo sapiens)) is given as 7000 nM.

B1: ST2 ectodomain, D1-D3 domains (sequence 19-323) (domain or fragment)
chain: KFSKQSWGLENEALIVRCPRQGKPSYTVDWYYSQTNKSIPTQERNRVFASGQLLKFLPAAVADSGIYTCIVRSPTFNRTGYANVTIYKKQSDCNVPDYLMYSTVSGSEKNSKIYCPTIDLYNWTAPLEWFKNCQALQGSRYRAHKSFLVIDNVMTEDAGDYTCKFIHNENGANYSVTATRSFTVKDEQGFSLFPVIGAPAQNEIKEVEIGKNANLTCSACFGKGTQFLAAVLWQLNGTKITDFGEPRIQQEEGQNQSFSNGLACLDMVLRIADVKEEDLLLQYDCLALNLHGLRRHTVRLSRKNP
modifications: biotinylated with Biotin-PEO4 linker (equimolar ratio)
B1 showed a Kd (IL-33 (residues 112-270)) of 2.23 nM, a koff (IL-33 (residues 112-270)) of 0.00115 s⁻¹ and a kon (IL-33 (residues 112-270)) of 516000 M⁻¹ s⁻¹.

B2 showed a Kd [3] of 65.1 nM, a koff [3] of 0.215 s⁻¹ and a kon [3] of 3.3e+06 M⁻¹ s⁻¹.

— PMC4703388, “Conformational Sampling and Binding Site Assessment of Suppression of Tumorigenicity 2 Ectodomain” (PLoS ONE, 2016)
